Laboratory results from the supplement of paper PMC10567573.
± gives the standard deviation.

Test: protein stability index of a GFP-peptide fusion (GPS, HEK-293T) (PSI 1-6); higher = more stable
Settings: c terminus: a fixed tail appended
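Note: 24-mer peptide tiles fused after GFP, lentivirally expressed, FACS-sorted into six equal bins by GFP/DsRed ratio, decoded by Illumina sequencing, PSI is the read-weighted mean bin number.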

Sequence	protein stability index (treatment: DMSO)	protein stability index (treatment: MLN4924 1 uM, 8 h)
YVKVLHHMVKISGGPRISYPLLHE [MAGEA6]	2.68 ± 0.52	2.41 ± 0.5
SWVSELLWSLFVPFTVYQVRWLRP [AUP1]	3.12 ± 0.27	2.81 ± 0.51
SYFKCVQKEVLPSMRKIVATWMLE [CCND1]	2.91 ± 0.76	2.46 ± 0.37
GCFTLPRSEPIRPIDPAAWVSHTA [DVL3]	2.81 ± 0.25	3 ± 0.42
YRRVNELLLSILNPTRQDESIQRI [ZER1]	2.46 ± 0.14	2.66 ± 0.53
SESPGSLSEVLAQPQGALAPPNCE [DNAAF3]	5.44 ± 0.1	5.17 ± 0.17
LVHTQEPGEWLELLLEPGSLYILR [ALKBH7]	2.38 ± 1	2.23 ± 0.28
YLLALTIIVSIVHSVFEFLAFKND [CLPTM1]	2.985 ± 0.024	2.85 ± 0.5
GVGAVPGPGTPTGPSLPSKRESPG [ZBTB22]	5.41 ± 0.29	5.21 ± 0.14
RAMKIPFTNDKIINLPVEEFNELL [NFE2L1]	2.87 ± 0.2	3.01 ± 0.67
HCAAVTPAGCMYIHGGVVNIHENK [KLHDC10]	2.86 ± 0.098	3.12 ± 0.49
DPACYEFLWGPRALVETSYVKVLH [MAGEA3]	2.12 ± 0.2	2.12 ± 0.36
MMTLLMKKDTLTEEETQFYISETV [STK38L]	3.16 ± 0.23	3.3 ± 0.31
KLYGQRERVWALAQEKAADVQARL [FCHSD1]	3.51 ± 0.32	3.49 ± 0.3
QFISRFLEGQSGVTIKHVACGDFF [NEK8]	2.51 ± 0.47	2.39 ± 0.37
SEKTDESDTIPYLKKFLYNFDNPW [MIA2]	2.78 ± 0.14	2.11 ± 0.039
KLGALLSRCRKLVEYFQQSAVAMY [ZBED1]	3.12 ± 0.31	3.1 ± 0.21

Sequence	protein stability index (treatment: DMSO)	protein stability index (treatment: MLN4924 1 uM, 8 h)
SIYGIPHSTLEYKVKERLGTLKNP [LCOR]	3.12 ± 0.31	3.2 ± 0.52
SSGLQDVTGPDNGVRESETEQGFG [NFE2L1]	5.6 ± 0.17	5.39 ± 0.35
SMAMEYFDEKIVPILKRKLPGSDV [FBXO28]	3 ± 0.22	3.25 ± 0.073
PRLIAKVEGKGNGIKTVIVNMVDV [EIF5]	2.34 ± 0.41	2.37 ± 0.34
LYHRADVEKVLRRWVDEEWPKRER [EDARADD]	2.87 ± 0.31	2.94 ± 0.45
NCGKSFSRLTALTLHQRTHTEERP [ZNF449]	3.38 ± 0.27	3.36 ± 0.26
HVSDEDNNADLCLTDDKQVLNTQG [DLC1]	5.34 ± 0.23	5.46 ± 0.13
TGRFSFTLPYPVKIKVRFSFFLQI [HACD3]	3.14 ± 0.37	2.92 ± 0.17
TGECKELEKKNEALKERADSLAKE [ATF4]	5.54 ± 0.3	5.59 ± 0.18
PGAGDPAPGIGPPEPWPGGCTGDE [MYCL]	5.38 ± 0.057	5.16 ± 0.43
HIDSSCSSFIKTEPSSPASLTDSV [ESRRG]	4.29 ± 0.18	4.23 ± 0.2
RGEQTTSQVSWEQDLKLFLQEPGV [FCHSD1]	4.01 ± 0.27	4.06 ± 0.43
PTPSTDAEYPANGSGADRIYDLNI [NCK2]	4.69 ± 0.21	4.71 ± 0.19
PEEPSAEDSINNSLVQLQASHQQQ [MYBL2]	5.62 ± 0.18	5.55 ± 0.16
PVVSAVWGHCEIRMRYLNGLDPEP [SPSB1]	2.14 ± 0.35	1.98 ± 0.33
MARNPAAIDMFIIGATFTDWFTSY [FBXO3]	3.1 ± 0.62	2.84 ± 0.57
